Experiments:
WT RBD-His = WT RBD-His (SARS-CoV-2, UniProt P0DTC2); assay: ELISA
[1] = target: SARS-CoV-2 S1-His protein (SARS-CoV-2); assay: ELISA

B1: 2B11 monoclonal antibody (full-length human IgG1) (antibody, V domains shown)
VH: EVQLVESGGGLVQPGGSLRLSCAASEITVSSNYMNWVRQAPGKGLEWVSVIYSGGTTYYADSVKGRFTISRDNSENTLYLQMNSLRAEDTAVYYCARDLMEVGGMDVWGQGTTVTVSS
VL: LPVLTQPPSASGTPGQRVTISCSGSSSNVENDNVNWFQQQVPGSTPKLVIYNDRLRPSGVPDRFSGSKSGTSAYLAISGLQSEDEADYYCVAWDASLQSYVFGTGTKVTVL
Q: Which IC50 (WT RBD-His) does the source give for B1 here?
A: Its IC50 is 0.589 µg/mL.

Q: What about the IC50 [1] of the same binder?
A: The IC50 was 0.383 µg/mL.

— publication PMC8315086 (2021)
